Values of other authors, collected in patent US8420067B2, “Targeted polylysine dendrimer therapeutic agent” (Starpharma Pty Ltd, priority 2006, dated 2013).
Where two headings read alike, the source gives them in different places.

Substance | stability of the conjugate in acidic conditions (pH 4) | stability of the conjugate in acidic conditions (pH 5) | stability of the conjugate in acidic conditions (acidic conditions (pH 4-6))
α-methoxy-ω-{N-(2-cholesteryloxy-[1,3]dioxolan-4-yl)methylamido}-polyethyleneglycol110 | moderately less stable | very stable | –
α-methoxy-ω-{N-(2-octadecyloxy-[1,3]dioxolan-4-yl)methylamido}-polyethyleneglycol110 | good stability | good stability | –
α-methoxy-ω-{N-2-(3-hydroxypropyl-cholesterylcarbamate)-2-methyl-[1,3]dioxan-5-yl-amido}-polyethyleneglycol110 | – | – | not stable
α-methoxy-ω-{N-(2-methyl-s-octadecyloxy-[1,3]dioxan-5-yl)-amido}-polyethyleneglycol110 | – | – | not stable
